Read-outs that look alike come from different tables or passages of the source.

Data set [1] addresses T1, human CD40 ligand (hCD40L) (Homo sapiens, UniProt P29965 113-261). As to the kind of experiment: BLI.
Data set [2] has as its target T1, human CD40 ligand (hCD40L). As to the kind of experiment: BLI. This is another data set of the same source. Background: Biolayer interferometry detects binding as a change in optical thickness at a sensor tip.

T1 sequence (P29965 113-261): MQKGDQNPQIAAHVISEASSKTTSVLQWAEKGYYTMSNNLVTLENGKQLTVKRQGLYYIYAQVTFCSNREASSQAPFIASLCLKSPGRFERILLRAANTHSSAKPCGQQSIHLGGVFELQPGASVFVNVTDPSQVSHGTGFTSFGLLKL

B1: hCD40L-4 (LNA-T, 2'F-C) (XNA)
DNA: GGGAGGAGGAAGCGGACGATGAACAAGTTGAAAAGGAATTTAAACGAATTAACAACAGACGACACGCCCGA
modifications: all T are LNA-T; all C are 2'F-C; A and G ribo
As for B1, the binding result in data set [1] is on record as “binds”.

B2: hCD40L-1 (LNA-T, 2'F-C) (XNA)
DNA: GGGAGGAGGAAGCGGAAAAAGCAGGTGTGAAAAGGACGTCAAACGACGTGACACACAGACGACACGCCCGA
modifications: all T are LNA-T; all C are 2'F-C; A and G ribo
With B2, in data set [2], the binding result is “binds”.

The values are drawn from publication doi:10.1101/2025.04.09.647959.
